Measured values taken from patent publication US20220153832A1 (PIONYR IMMUNOTHERAPEUTICS, published 2022).

Tests used:
[1] = target: T1, recombinant cynomolgus MARCO protein (cynomolgus, UniProt A0A2K5X0Z2 65-519); assay: Biacore (SPR), recombinant cyno MARCO
T1 construct: Construct not described; also called cyno MARCO; cynoMARCO
T1 sequence: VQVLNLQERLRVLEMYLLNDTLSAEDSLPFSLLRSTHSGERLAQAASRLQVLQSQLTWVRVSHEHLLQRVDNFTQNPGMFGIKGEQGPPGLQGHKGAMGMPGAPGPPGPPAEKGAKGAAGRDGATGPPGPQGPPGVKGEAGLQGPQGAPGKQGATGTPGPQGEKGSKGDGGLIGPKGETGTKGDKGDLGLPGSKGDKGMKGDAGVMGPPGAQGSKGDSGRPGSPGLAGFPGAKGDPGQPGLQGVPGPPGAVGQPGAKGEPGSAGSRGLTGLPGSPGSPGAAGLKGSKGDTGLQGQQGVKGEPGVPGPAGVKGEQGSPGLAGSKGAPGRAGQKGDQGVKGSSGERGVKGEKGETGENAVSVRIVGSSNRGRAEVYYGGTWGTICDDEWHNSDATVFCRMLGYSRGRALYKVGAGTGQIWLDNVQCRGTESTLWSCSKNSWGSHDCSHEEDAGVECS

[2] = target: T2, N-terminally polyhistidine tagged human MARCO ECD (147-520), recombinant (human, UniProt Q9UEW3 147-520); assay: Biacore (SPR), recombinant human MARCO
T2 construct: also called PI-RG-3000; recombinant human MARCO; not shown: N-terminal polyhistidine tag
T2 sequence: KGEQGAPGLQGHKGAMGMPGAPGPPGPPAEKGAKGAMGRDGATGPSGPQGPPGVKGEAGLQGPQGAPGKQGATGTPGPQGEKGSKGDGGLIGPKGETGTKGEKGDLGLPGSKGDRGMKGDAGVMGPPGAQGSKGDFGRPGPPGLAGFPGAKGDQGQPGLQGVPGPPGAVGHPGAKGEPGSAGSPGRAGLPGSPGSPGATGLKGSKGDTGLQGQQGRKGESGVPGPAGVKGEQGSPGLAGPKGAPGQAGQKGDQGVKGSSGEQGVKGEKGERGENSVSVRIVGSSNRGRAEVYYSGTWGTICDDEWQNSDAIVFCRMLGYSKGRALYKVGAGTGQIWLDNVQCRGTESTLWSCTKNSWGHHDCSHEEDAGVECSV
Summary of the method: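 Antibodies were captured by anti-mouse Fc mAb amine-coupled to a CM4 chip (4500 RU target). Running buffer was 10 mM HEPES pH 7.4, 150 mM NaCl, 3 mM EDTA, 0.05% surfactant P20. Injections were at 0.625–10 nM with 90 s association and 600 s dissociation, and constants were fitted in BIAevaluation 3.1.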

[3] = target: T2, N-terminally polyhistidine tagged human …; assay: Biacore, recombinant human MARCO; control sample
[4] = target: T2, N-terminally polyhistidine tagged human …; assay: Biacore; deamidation stress sample (40 C 2 week)
[5] = target: T2, N-terminally polyhistidine tagged human …; assay: ELISA readout A450-A620; the panel names no target, the legend says MARCO expressing cells; stable transfection pools
[6] = target: T3, N-terminal his-tagged mouse MARCO protein, recombinant (mouse, UniProt Q60754 150-518); assay: Biacore
T3 construct: The entry holds the His tag, the CLD and the SRCR domain; also called mMARCO (RG3016); PI-RG-3016
T3 sequence: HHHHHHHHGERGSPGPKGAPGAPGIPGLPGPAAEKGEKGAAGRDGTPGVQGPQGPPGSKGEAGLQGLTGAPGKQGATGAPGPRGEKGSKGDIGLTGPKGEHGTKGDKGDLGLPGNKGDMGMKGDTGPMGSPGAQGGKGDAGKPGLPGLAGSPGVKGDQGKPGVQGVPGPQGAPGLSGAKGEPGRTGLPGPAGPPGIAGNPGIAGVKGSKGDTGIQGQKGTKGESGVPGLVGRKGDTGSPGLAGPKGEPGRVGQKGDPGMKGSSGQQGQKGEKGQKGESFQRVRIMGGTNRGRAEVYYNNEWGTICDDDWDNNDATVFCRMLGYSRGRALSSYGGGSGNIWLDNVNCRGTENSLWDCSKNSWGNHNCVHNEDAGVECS

[7] = target: T4, Mouse MARCO, full length, on cells (mouse, UniProt Q60754 1-518); assay: flow cytometry, 293T (muMARCO)
T4 construct: whole, on cells; the cell type is named under assay; also called muMARCO; MuMARCO
T4 sequence (looked up): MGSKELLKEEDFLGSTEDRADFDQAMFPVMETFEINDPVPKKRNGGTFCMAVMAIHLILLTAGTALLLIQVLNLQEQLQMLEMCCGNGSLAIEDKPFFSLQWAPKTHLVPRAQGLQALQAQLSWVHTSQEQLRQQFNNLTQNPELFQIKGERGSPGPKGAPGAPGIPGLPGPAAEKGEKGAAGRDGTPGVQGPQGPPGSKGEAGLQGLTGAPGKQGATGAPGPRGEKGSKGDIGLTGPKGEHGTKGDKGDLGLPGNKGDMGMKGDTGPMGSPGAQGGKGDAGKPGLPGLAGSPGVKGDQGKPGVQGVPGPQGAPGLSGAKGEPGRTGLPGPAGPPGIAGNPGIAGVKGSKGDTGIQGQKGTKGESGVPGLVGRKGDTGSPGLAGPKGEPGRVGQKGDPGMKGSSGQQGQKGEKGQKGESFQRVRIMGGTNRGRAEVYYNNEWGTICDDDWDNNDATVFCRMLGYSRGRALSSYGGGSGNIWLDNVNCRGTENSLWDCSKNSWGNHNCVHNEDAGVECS

[8] = target: T2, N-terminally polyhistidine tagged human …; assay: ProbeLife Gator
Method: The kinetics assay used either anti-mouse Fc or anti-human Fc probes to capture the anti-MARCO antibodies onto the probe, and then a five-step kinetic protocol was used to measure the affinity of the antibodies to the antigen, including the following steps: baseline, loading, baseline, association, and dissociation. The kinetics buffer (K buffer) provided by ProbeLife was used to establish the baseline for 60 seconds, and then the anti-mFc or anti-hFc probes were loaded with 200 nM of the antibodies for 120s until the capture reached saturation, measurement of the baseline in K buffer was performed for another 60s, followed by the association step using 200 nM antigen (human MARCO, mouse MARCO or cyno MARCO), and the dissociation step performed in K buffer for 5-10 minutes. The assay was done at 37° C. to maximize antibody:antigen dissociation.

B1: PI-3015-AB (antibody, human IgG1, kappa)
heavy: not shown
light: DIQMTQSPSSLSASVGDRVTITCRASEGISNDLAWYQQKPGKAPKLLIYAASRLQSGVPSRFSGSGSGTDYTLTISSMQPEDFATYYCQQSYKYPLTFGQGTKLEIKRTVAAPSVFIFPPSDEQLKSGTASVVCLLNNFYPREAKVQWKVDNALQSGNSQESVTEQDSKDSTYSLSSTLTLSKADYEKHKVYACEVTHQGLSSPVTKSFNRGEC
Kd [1]: 1.65 nM | Kd [2]: 0.51 nM | koff [2]: 0.000294 s⁻¹ | Kd [3]: 1.2 nM | Kd [4]: 1.24 nM | EC50 (read off the curve) [5]: ~0.2 nM

B2: PI-HX-3061 (antibody, rat IgG2a)
heavy: EVQLVESGGGLVQPGSSLKLSCVASKFTFSNYGMNWIRQAPKKGLEWIALIYYNSNNKYYADSVKGRFTISRDNSKNTLYLEMNSLRSEDTAMYYCAKSLTGGSDYFDSWGQGVMVTVSSAETTAPSVYPLAPGTALKSNSMVTLGCLVKGYFPEPVTVTWNSGALSSGVHTFPAVLQSGLYTLTSSVTVPSSTWPSQTVTCNVAHPASSTKVDKKIVPRNCGGDCKPCICTGSEVSSVFIFPPKPKDVLTITLTPKVTCVVVDISQDDPEVHFSWFVDDVEVHTAQTRPPEEQFNSTFRSVSELPILHQDWLNGRTFRCKVTSAAFPSPIEKTISKPEGRTQVPHVYTMSPTKEEMTQNEVSITCMVKGFYPPDIYVEWQMNGQPQENYKNTPPTMDTDGSYFLYSKLNVKKEKWQQGNTFTCSVLHEGLHNHHTEKSLSHSP
light: DVQMTQSPSYLAASPGESVSISCKASKSIGTFLAWYQEKPEKTNKLLIYSGSTLQSGTPSRFSGSGSGTDFTLTIRNLEPEDFAVYYCQQHDEYPFTFGSGTKLEIKRADAAPTVSIFPPSTEQLATGGASVVCLMNNFYPRDISVKWKIDGTERRDGVLDSVTDQDSKDSTYSMSSTLSLTKADYESHNLYTCEVVHKTSSSPVVKSFNRNEC
notes: Parental rat hybridoma, rat IgG2a; cross reactive with human and mouse MARCO
Kd [6]: < 0.02 nM | EC50 [7]: 2.53 nM

B3: PI-3010-AB (antibody, human IgG1, kappa)
heavy: not shown
light: DIQMTQSPASLSTSLGETVSIECLASEGISNDLAWYQQKSGKSPQLLIYAASRLQDGVPSRFSGSGSGTRYSLKISGMQPEDEADYFCQQSYKYPLTFGSGTKLEIKRTVAAPSVFIFPPSDEQLKSGTASVVCLLNNFYPREAKVQWKVDNALQSGNSQESVTEQDSKDSTYSLSSTLTLSKADYEKHKVYACEVTHQGLSSPVTKSFNRGEC
koff [8]: 0.00234 s⁻¹
